We go through three molecules from paper PMC10397247.

The target in assay [1] is T1, P2-AA-1HGe-A.
T1 chain: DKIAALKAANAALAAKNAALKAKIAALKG
Description: two-hybrid library CCmax.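 Note: natural log of median RNA to DNA barcode read ratio; higher means stronger binding.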 Conditions: mean of both orientations.

Assay [2] concerns the target T2, P2-AA-1HGe-D.
T2 chain: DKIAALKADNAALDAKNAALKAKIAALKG
Description: two-hybrid library CCmax.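 Note: natural log of median RNA to DNA barcode read ratio; higher means stronger binding.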 To be noted: mean of both orientations.

Assay [3] has as its target T3, P2-AA-1HGe-H.
T3 chain: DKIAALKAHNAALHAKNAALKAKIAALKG
Description: two-hybrid library CCmax.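 Note: natural log of median RNA to DNA barcode read ratio; higher means stronger binding.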 To be noted: mean of both orientations.

The target of assay [4] is T4, P2-AA-1HGe-M.
T4 chain: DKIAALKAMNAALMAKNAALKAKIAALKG
Description: two-hybrid library CCmax.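 Note: natural log of median RNA to DNA barcode read ratio; higher means stronger binding.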 To be noted: mean of both orientations.

Assay [5] concerns the target T5, P2-AA-1HGe-Q.
T5 chain: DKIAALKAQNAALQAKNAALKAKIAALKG
The assay is described as follows: two-hybrid library CCmax.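 Note: natural log of median RNA to DNA barcode read ratio; higher means stronger binding.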 Conditions: mean of both orientations.

Assay [6] has as its target T6, P2-AA-1HGe-T.
T6 chain: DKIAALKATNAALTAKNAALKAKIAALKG
Description: two-hybrid library CCmax.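 Note: natural log of median RNA to DNA barcode read ratio; higher means stronger binding.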 To be noted: mean of both orientations.

In assay [7] the target is T7, P2-AA.
T7 chain: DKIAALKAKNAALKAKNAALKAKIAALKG
The assay is described as follows: two-hybrid library CCmax. To be noted: mean of both orientations.

In assay [8] the target is T8, 4H1072-bN.
T8 chain: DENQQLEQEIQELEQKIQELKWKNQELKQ
Description: two-hybrid library CCNG1.

Assay [9] concerns the target T9, 4H1193-bN.
T9 chain: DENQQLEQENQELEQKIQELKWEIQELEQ
The assay is described as follows: two-hybrid library CCNG1.

Assay [10] addresses T10, 4H1387-bN.
T10 chain: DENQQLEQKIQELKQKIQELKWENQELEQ
Description: two-hybrid library CCNG1.

In assay [11] the target is T11, 4H1406-bN.
T11 chain: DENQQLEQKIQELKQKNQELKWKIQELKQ
Description: two-hybrid library CCNG1.

In assay [12] the target is T12, 4H2568-bN.
T12 chain: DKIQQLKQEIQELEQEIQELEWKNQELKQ
The assay is described as follows: two-hybrid library CCNG1.

Assay [13] concerns the target T13, 4H2619-bN.
T13 chain: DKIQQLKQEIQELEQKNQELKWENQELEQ
The assay is described as follows: two-hybrid library CCNG1.

In assay [14] the target is T14, 4H2745-bN.
T14 chain: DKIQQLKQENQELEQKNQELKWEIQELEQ
Description: two-hybrid library CCNG1.

For assay [15], the target named is T15, 4H344-bN.
T15 chain: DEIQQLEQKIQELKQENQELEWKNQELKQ
The assay is described as follows: two-hybrid library CCNG1.

Assay [16] deals with T16, 4H3592-bN.
T16 chain: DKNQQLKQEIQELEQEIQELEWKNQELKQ
The assay is described as follows: two-hybrid library CCNG1.

Assay [17] has as its target T17, 4H3601-bN.
T17 chain: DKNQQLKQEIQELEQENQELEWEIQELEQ
Description: two-hybrid library CCNG1.

Assay [18] concerns the target T18, 4H363-bN.
T18 chain: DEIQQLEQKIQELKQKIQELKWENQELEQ
Description: two-hybrid library CCNG1.

The target in assay [19] is T19, 4H3907-bN.
T19 chain: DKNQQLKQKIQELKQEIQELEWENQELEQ
The assay is described as follows: two-hybrid library CCNG1.

Assay [20] has as its target T20, 4H3961-bN.
T20 chain: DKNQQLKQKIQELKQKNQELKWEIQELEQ
Description: two-hybrid library CCNG1.

Assay [21] concerns the target T21, 4H4038-bN.
T21 chain: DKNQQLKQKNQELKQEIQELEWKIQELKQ
Description: two-hybrid library CCNG1.

The target in assay [22] is T22, 4H470-bN.
T22 chain: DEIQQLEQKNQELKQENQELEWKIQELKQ
Description: two-hybrid library CCNG1.

Assay [23] deals with T23, P11bHq.
T23 chain: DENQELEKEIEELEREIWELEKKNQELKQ
Description: two-hybrid library CCNG1.

The target in assay [24] is T24, P12bHq.
T24 chain: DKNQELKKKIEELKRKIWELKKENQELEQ
The assay is described as follows: two-hybrid library CCNG1.

Assay [25] addresses T25, P1bHq.
T25 chain: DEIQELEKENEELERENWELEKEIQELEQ
Description: two-hybrid library CCNG1.

In assay [26] the target is T26, P2bHq.
T26 chain: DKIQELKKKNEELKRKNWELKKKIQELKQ
The assay is described as follows: two-hybrid library CCNG1.

The target of assay [27] is T27, P3bHq.
T27 chain: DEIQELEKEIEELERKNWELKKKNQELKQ
Description: two-hybrid library CCNG1.

Assay [28] has as its target T28, P4bHq.
T28 chain: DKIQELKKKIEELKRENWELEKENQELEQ
Description: two-hybrid library CCNG1.

The target of assay [29] is T29, P5bHq.
T29 chain: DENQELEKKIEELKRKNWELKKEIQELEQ
The assay is described as follows: two-hybrid library CCNG1.

Assay [30] deals with T30, P6bHq.
T30 chain: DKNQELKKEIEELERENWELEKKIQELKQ
Description: two-hybrid library CCNG1.

The target of assay [31] is T31, P7bHq.
T31 chain: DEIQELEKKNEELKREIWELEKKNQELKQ
Description: two-hybrid library CCNG1.

Assay [32] addresses T32, P8bHq.
T32 chain: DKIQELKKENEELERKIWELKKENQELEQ
Description: two-hybrid library CCNG1.

For assay [33], the target named is T33, P9bHq.
T33 chain: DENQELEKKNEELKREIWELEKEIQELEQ
Description: two-hybrid library CCNG1.

With DEIAALEAHNAALHAENAALEAEIAALEG [P1-AA-1HGe-H], the interaction score in [1] was found to be 2.34; in [2], 1.6; in assay [3], 1.57; in assay [4], 1.8; in assay [5] it was 2.16; in assay [6] it was 1.71. In assay [7], this molecule showed an interaction score of 1.8.

For the molecule DENQQLEQEIQELEQKIQELKWKNQELKQ [4H1072-bN], the interaction score is 0.692 in assay [8]; -0.235 in assay [9]; 0.922 in assay [10]; -0.693 in assay [11]; -0.182 in assay [12]; 0.775 in [13]. For the same molecule, the interaction score in [14] is -0.0701; in [15], -0.983; in [16], 0.235; in assay [17], -0.0449; in [18] it was 1.58; in assay [19] it was 1.91. Further, the results for the interaction score in assay [20], in [21] and in assay [22] were 0.231, 0.389 and 0.0488, respectively.

In the case of DENQELEKEIEELEREIWELEKKNQELKQ [P11bHq], the interaction score in assay [23] is 1.25; in assay [24], 1.78; in assay [25], 0.41; in assay [26] it was 0.67; in [27] it was 1.18; in [28] it was 1.65. The interaction score is 0.352 in assay [29]; 0.74 in assay [30]; -1.22 in assay [31]; 0.862 in [32]; 0.854 in assay [33].
